Residue numbers refer to the chain shown, from its start. “And” between values parts separate entries of the source, which are not always exact repeats. Equal entries are not always repeated. Blank lines part the entries; values can stand above or below the binder they belong to.
Columns and labels:
Human CD3eg linker = target: T1, Human CD3eg linker (human); experiment: SPR Biacore T200, 25 C, Ab captured
T1 construct: CD3 epsilon and gamma subunits joined by a 29-mer linker, C-terminal Flag-tag (in the entry); also called recombinant human CD3
T1 chain: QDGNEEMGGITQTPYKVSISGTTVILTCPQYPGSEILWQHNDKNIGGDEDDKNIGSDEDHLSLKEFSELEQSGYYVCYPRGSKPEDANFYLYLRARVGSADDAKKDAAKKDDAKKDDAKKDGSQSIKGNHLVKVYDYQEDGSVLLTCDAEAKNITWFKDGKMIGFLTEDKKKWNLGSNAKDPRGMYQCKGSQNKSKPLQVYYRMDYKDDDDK
Protocol: (§1) Anti-human Fc (GE Healthcare) was immobilized onto all flow cells of a CM4 sensor chip using amine coupling kit (GE Healthcare). […] All antibodies and analytes were prepared in ACES pH 7.4 containing 20 mM ACES, 150 mM NaCl, 0.05% Tween 20, 0.005% NaN3. Sensor surface was regenerated each cycle with 3M MgCl2.

Human CD137 ECD = target: T2, Human CD137 ECD (human); experiment: SPR Biacore T200, 37 C, Ab captured
T2 construct: C-terminal His-tag and biotin acceptor peptide are in the entry; also called human CD137 extracellular domain; recombinant human CD137
T2 sequence (chain, as listed by the source limits assumed): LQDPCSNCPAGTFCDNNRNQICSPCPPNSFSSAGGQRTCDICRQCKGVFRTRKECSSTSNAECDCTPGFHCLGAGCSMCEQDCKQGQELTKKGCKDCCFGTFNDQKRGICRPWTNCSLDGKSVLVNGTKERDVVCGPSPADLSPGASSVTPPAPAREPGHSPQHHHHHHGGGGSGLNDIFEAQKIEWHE
Protocol: as §1

cyno CD137-Fc = target: T3, cyno CD137-Fc (cynomolgus monkey; human, biotin-labeled); experiment: bead ELISA
T3 construct: whole entry named; also called biotin-labeled cynomolgus monkey CD137 fused to human IgG1 Fc fragment; not shown: human IgG1 Fc fragment
T3 chain: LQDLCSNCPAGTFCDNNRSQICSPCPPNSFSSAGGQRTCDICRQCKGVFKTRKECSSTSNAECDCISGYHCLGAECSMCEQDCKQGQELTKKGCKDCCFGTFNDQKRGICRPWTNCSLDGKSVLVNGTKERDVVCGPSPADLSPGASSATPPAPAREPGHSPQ

[1] = target: T4, biotinylated CD3 epsilon epitope peptide; experiment: SPR Biacore, method of Ref. Ex. 12.6
T4 construct: immobilised on CM5 chip via streptavidin

Kd (Human CD3eg linker): 288 nM
Kd (Human CD137 ECD): 47.9 nM
B1: H1643L0581 (antibody, V domains shown)
VH: QVQLVESGGGLVQPGRSLRLSCAASGFKFSNVWFHWVRQAPGKGLEWVAQIKDYYNAYAAYYAPSVKGRFTISRDDSKNSIYLQMNSLKTEDTAVYYCHYVHYASASTLLPAEGVDAWGQGTTVTVSS
VL: DIVMTQSPLSLPVTPGEPASISCQPSQEVVHMNRNTYLHWYQQKPGQAPRLLIYKVSNRFPGVPDRFSGSGSGTDFTLKISRVEAEDVGVYYCAQGTSHPFTFGQGTKLEIK
notes: also called H1643L581; Dual

binding result (cyno CD137-Fc): no binding
B2: DADU01_3#001 (antibody, V domains shown)
VH: QVQLVESGGGLVQPGRSLRLSCAASGFTFSIAWMHWVRQAPGKGLEWVAQIKDRVNAYEAYYAPSVKGRFTISRDDSKNSIYLQMNSLKTEDTAVYYCRYVHYASYYDLLGYGGVDAWGQGTTVTVSS
VL: B1 VL with Q24R, P25S, E28S, V29L, M32S, P61S, A94G, S98Q, H99V, F101Y
notes: also called dBBDu_126; dBBDu126

Kd [1]: 20 nM and 27 nM
B3: CE115HA340 (antibody, human IgG1, L234A L235A, N297A, V domains shown)
VH: QVQLVESGGGLVQPGRSLRLSCAASGFTFSNAWMHWVRQAPGKGLEWVAQIKDKSNNYATYYAESVKGRFTISRDDSKNSIYLQMNSLKTEDTAVYYCRYVHYAAYYGVDAWGQGTTVTVSS
VL: B1 VL with Q24R, P25S, E28S, V29L, M32S, P61S, A94G, S98Q, H99V, F101Y

Kd (Human CD3eg linker): 24.6 nM
Kd (Human CD137 ECD): 56.5 nM
B4: H1673L0943 (antibody, V domains shown)
VH: B1 VH with K28V, Y54K, Y55W, A60D, G68E, V101I, V115I
VL: B1 VL with Q27E, R59L, S98H
